Reference: the nanobody polyreactivity screen of Harvey et al. (2022)

Assay: yeast display, Sf9 membrane polyspecificity reagent, FACS + sequencing; frameworks hold sequencing errors
In short: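 Galactose induction of a Saccharomyces cerevisiae BJ5465 synthetic nanobody display library ran 36–48 hours. The cells were then stained for 1 hour at 4 °C with 10% biotinylated, detergent-solubilized Sf9 membrane reagent, pulled down on streptavidin microbeads and FACS-sorted into low and high (top ~1%) gates on expression and reagent-binding fluorescence. Labels for polyreactivity follow the gate of origin.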

| Sequence | polyreactivity (PSR sort gate) |
| --- | --- |
| QVQLVESGGGLVQAGGSLRLSCAASGRTFYRNAMGWYRQAPGKERELVAAIRTRTGSTYYADSVKGRFTISRDNAKNTVYLQRNSLKPEDTAVYYCNASPYVNGRYGSWGQGTQVTVSS | high polyreactivity |
| QVQLVESGGGLVQAGGSLRLSCAASGRTFYRNAMGWYRQAPGKERELVAAISGSGVRTYYADSVKGRFTISRDNAKNTVYLQMNSLKPEDTAVYYCARSVTWFRGRFSPDYGSWGQGTQVTVSS | high polyreactivity |
| QVQLVESGGGLVQAGGSLRLSCAASGRTFYRNAMGWYRQAPGKERELVAAISRSGGRTYYADSVKGRFTISRDNAKNTVYLHMNSLKPEDTAVYYCNAQPTLAVADYDYWGQGTQVTVSS | high polyreactivity |
| QVQLVESGGGLVQAGGSLRLSCAASGRTFYRNAMGWYRQAPGKERELVAAISRSGGRTYYADSVKGRFTISRDNAKNTVYLQMNSLKPEDTAVYYCNAQPTLAVADYDYWGQGTQVTVSS | high polyreactivity |
| QVQLVESGGGLVQAGGSLRLSCAASGRTFYRNAMGWYRQAPGKERELVAAISWRGGSTFYADSVKGRFTISRDNAKNTVYLQMNSLKPEDTAVYYCNAGSNSFSRVEYWGQGTQVTVSS | low polyreactivity |
| QVQLVESGGGLVQAGGSLRLSCAASGRTFYRNAMGWYRQAPGKERELVAAITSGGSTYYADSVKGRFTISRDNAKNTVYLQINSLKPEDTAVYYCAKRKGWVPSRSWTPAFWGQGTQVTVSS | low polyreactivity |
| QVQLVESGGGLVQAGGSLRLSCAASGRTFYRYAMGWYRQAPGKERELVAAISTRGGTTYYADSVKGRFTISRDNAKNTVYLQMNSLKPEDTAVYYCAADSVYAEDDSWGQGTQVTVSS | low polyreactivity |
| QVQLVESGGGLVQAGGSLRLSCAASGRTFYRYAMGWYRQAPGKERELVAAITTGGGSTYYADSVKGRFTISRDNAKNTVYLQMNSLKPEDTAVYYCNVYSSYTRRTLGDYWGQGTQVTVSS | high polyreactivity |
| QVQLVESGGGLVQAGGSLRLSCAASGRTFYRYAMGWYRQAPGKERELVAAMSRSGTTYYADSVKGRFTISRDNAQNTVYFQMNSLKPEDTALYYCAAKPAARQRGGDYWGQGTQVTVSS | high polyreactivity |
| QVQLVESGGGLVQAGGSLRLSCAASGRTFYRYAMGWYRQAPGKERELVATITLRGGRTYYADSVKGRFTISRDTAKNTVYLQMNSLKPEDTAVYYCAKYHWRLSFSRYPYDYWGQGTQVTVSS | high polyreactivity |
| QVQLVESGGGLVQAGGSLRLSCAASGRTFYRYAMGWYRQAPGKERLVAAITWNGGSTYYADSVKGRFTISRDNAKNTVYLQMNSLNPEDTAVYYCAATFGGVSWRRPHRFDYWGQGTQVTVSS | high polyreactivity |
| QVQLVESGGGLVQAGGSLRLSCAASGRTFYRYSMGWYRQAPAKERELVAAISSSGGRTYYADSVKGRFTISRDNAKNTVYLQMNSLKPEDTAVYYCIKAYYYWYDWGQGTQVTVSS | high polyreactivity |
| QVQLVESGGGLVQAGGSLRLSCAASGRTFYRYTMGWYRQAPAKERELVAAISWSGGSTYYADSVKGRFTISRDNAKNTVYLQMNSLKPEDTAVNYCAKATYWLYVQWYTYGYWGQGTQVTVSS | high polyreactivity |
| QVQLVESGGGLVQAGGSLRLSCAASGRTFYRYTMGWYRQAPGKERELVAGISWRGGTTYYADSVKGRFTISRDNAKNTVYLQMNSLKPEDTAVYYCAAKAGYRYGSLAYYKYDYWGQGTQVTVSS | high polyreactivity |
| QVQLVESGGGLVQAGGSLRLSCAASGRTFYSNAMGWYRQAPGKERELVAAISSSGSSTSYADSVKGRFTMSRDNAKNTVYLQMNSLKPEDTAVYYCAVRTKRRANRDYWGQGTQVTVSS | high polyreactivity |
| QVQLVESGGGLVQAGGSLRLSCAASGRTFYSNSMGWYRQAPGKERELVATISWRGGSTYYADSVKGRFTISRDNAKNTVYFQMHSLKPEDTAVYYCAAGYYPYWGQGTQVTVSS | low polyreactivity |
| QVQLVESGGGLVQAGGSLRLSCAASGRTFYSNTMGWYRQAPGKEREFVAAIPSIVGSTYYADSVKGRFTISRDNAKNTVYLQMNSLKPEDTAVYYCATRYVVIEYDYWGQGTQVTVSS | low polyreactivity |
